Assay results taken from paper PMC3896397.

Molecular target: Recombinant Human VEGF-A165 (human)
Test: ELISA; VEGF 165 (0.5 ug) on 96-well plates; serial dilutions (0.05 to 10 uM) of Flag-tagged HSPB1 wild type or C-terminal HSPB1 in PBS plus 1% BSA, 37°C, 2 hours; detected with anti-flag monoclonal antibody; Kd by Scatchard analysis

Row | Kd [µM] | Substance
1 | 10.8 | Flag-tagged secretory wild-type HSPB1 (from UniProt P04792 1-205) (natural protein)
2 | 0.78 | C-terminal HSPB1 fragment, secretory HSPB1 (59-203) (from UniProt P04792 59-203) (domain or fragment)
